Here are results for 1 molecule from paper PMC6754406, “Ran pathway-independent regulation of mitotic Golgi disassembly by Importin-α” (Nature Communications, 2019).

One series has as its target T1, Importin-β (Homo sapiens, UniProt Q14974).
T1 construct: GST (N, cleaved yes); made in house; host or cells: Escherichia coli Rosetta
Briefly: GST pulldown of Importin-β with RanQ69L (dissociation). The format is binding. Conditions: GM130:RanQ69L:Importin 1:4:1; three independent experiments. The protocol: Fig. 4 Ran and a phosphate moiety repress GM130 and Importin-β interaction. a SEC (Superdex 200) elution profiles for the Importin-β•GST-GM130-WT complex (black line), Importin-β (gray line), and GST-GM130-WT (light gray line). The void volume (Vo) is indicated. b–d The peak fractions of the Importin-β•GST-GM130-WT complex (b), Importin-β (c), and GST-GM130-WT (d) were analyzed by SDS–PAGE and stained with Coomassie blue. e, f ITC titration curves (upper) and binding isotherms (lower) of Importin-β with GM130-NLS WT (e) and GM130-NLS phospho-S25 (f). Kd values are indicated. g Competition binding assay. GST-GM130-S25D and Importin-β were incubated with indicated concentrations of GFP-IBB. Samples pulled down by GST beads were analyzed by SDS–PAGE and stained with Coomassie blue. […] GST-bound samples were analyzed by SDS–PAGE and stained with Coomassie blue. i, k Band intensities of Importin-α or Importin-β from the SDS–PAGE gels in h, j were used to determine averages of bound protein. […]
A 1:1 molar ratio of GST-GM130-WT or mutant GM130 and Importin-α FL was incubated with glutathione-coupled sepharose beads (GE Healthcare). After pre-washing with 150 mM NaCl, proteins were eluted by a buffer containing 50 mM reduced glutathione and analyzed by SDS–PAGE. […]

Another series concerns p115-CTD. Briefly: Competition binding assay, p115-CTD remaining on GST-GM130 in presence of Importin-α FL. Conditions: 40 μM Importin-α FL; three independent experiments. On the procedure: Fig. 3 GM130 interacts with full-length Importin-α. a, b ITC titration curves (upper) and binding isotherms (lower) of Importin-α FL with GM130-NLS WT (a) and GM130-NLS phospho-S25 (b). Kd values are indicated. c Pulldown assays of Importin-α FL with GM130-WT or GM130-S25D. GST-tagged GM-130-WT or GM130-S25D was incubated with Importin-α FL. GST-bound samples were analyzed by SDS–PAGE and stained with Coomassie blue. d Competition binding assay. p115-CTD was incubated with either GST-GM130-WT or GST-GM130-S25D in the presence of indicated concentrations of Importin-α FL. Samples pulled down by GST beads were analyzed by SDS–PAGE and stained with Coomassie blue. e, f Band intensities of Importin-α FL and p115-CTD from the SDS–PAGE gels in d were quantified and normalized by GST-GM130 intensity. Quantitative plots show normalized Importin-α FL intensities (e) and percent p115-CTD remaining on GM130 (f).
To examine whether Importin-α FL also competes with p115-CTD for GM130 binding, we carried out competition binding assays in the presence of Importin-α FL, p115-CTD, and GM130. […] Moreover, we observed a ~2-fold increase in Importin-α FL pulldown by the phosphomimetic mutant (GM130-S25D) compared to wild-type GM130 (40 μM Importin-α FL; Fig. 3d, e). […]

The subject of the next series is Importin-α (a.a. 70–498). Briefly: CD spectra thermal melting assay of complexes with Importin-α. The format is physicochemical. Conditions: CD at 222 nm, 20 to 75 °C, 0.2 mg/ml, 20 mM HEPES pH 7.4, 50 mM NaCl, 3 mM DTT; average of three scans; complex with Importin-α (a.a. 70–498). On the procedure: The CD spectra of the GM130-WT(1–48)•Importin-α (a.a. 70–498), GM130-S25D(1–48)•Importin-α (a.a. 70–498), and GM130-NLS phospho-S25 (a.a. 13–38)•Importin-α (a.a. 70–498) complexes were recorded using an AVIV CD400 spectrometer. Thermal melting temperatures were determined by measuring the ellipticity at a wavelength of 222 nm as a function of temperature from 20 to 75 °C. The protein concentration used in the CD measurements was 0.2 mg/ml in a buffer of 20 mM HEPES (pH 7.4), 50 mM NaCl, and 3 mM DTT. Measurements were taken three times and averaged.

T1 sequence (Q14974 whole entry): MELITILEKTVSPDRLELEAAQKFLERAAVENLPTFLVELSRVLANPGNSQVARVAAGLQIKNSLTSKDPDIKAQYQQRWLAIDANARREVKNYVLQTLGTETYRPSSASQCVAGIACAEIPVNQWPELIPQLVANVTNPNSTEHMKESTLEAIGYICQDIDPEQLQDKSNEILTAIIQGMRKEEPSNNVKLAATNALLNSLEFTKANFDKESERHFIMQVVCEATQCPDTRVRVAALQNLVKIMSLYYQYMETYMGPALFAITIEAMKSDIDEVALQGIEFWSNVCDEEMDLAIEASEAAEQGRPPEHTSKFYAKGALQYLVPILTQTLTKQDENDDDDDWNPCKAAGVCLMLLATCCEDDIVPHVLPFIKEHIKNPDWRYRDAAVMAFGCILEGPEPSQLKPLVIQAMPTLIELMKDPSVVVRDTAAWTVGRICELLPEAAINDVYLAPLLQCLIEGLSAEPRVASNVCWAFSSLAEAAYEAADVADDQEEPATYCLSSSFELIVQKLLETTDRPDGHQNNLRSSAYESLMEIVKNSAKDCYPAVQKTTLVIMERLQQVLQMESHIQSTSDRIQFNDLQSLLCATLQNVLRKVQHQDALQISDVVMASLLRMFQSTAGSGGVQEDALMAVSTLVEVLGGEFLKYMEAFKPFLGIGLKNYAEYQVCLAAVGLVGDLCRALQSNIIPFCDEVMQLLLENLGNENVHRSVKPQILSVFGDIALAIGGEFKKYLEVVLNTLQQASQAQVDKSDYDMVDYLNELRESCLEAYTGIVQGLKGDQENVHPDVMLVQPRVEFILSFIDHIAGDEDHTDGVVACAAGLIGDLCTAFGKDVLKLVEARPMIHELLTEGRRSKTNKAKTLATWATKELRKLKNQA

B1: GM130-WT: wild type GM130 N-terminal region (a.a. 1-85) (protein)
chain: MWPQPRLPPRPAMSEETRQSKLAAAKKKLREYQQRNSPGVPTGAKKKKKIKNGSNPETTTSGGCHSPEDTPKDNAATLQPSDDTVLPGGVPSPGASLTSMAASQNHDADNVPNLMDETKTFSSTESLRQLSQQLNGLVCESATCVNGEGPASSANLKDLESRYQQLAVALDSSYVTNKQLNITIEKLKQQNQEITDQLEEEKKECHQKQGALREQLQVHIQTIGILVSEKAELQTALAHTQHAARQKEGESEDLASRLQYSRRRVGELERALSAVSTQQKKADRYNKELTKERDALRLELYKNTQSNEDLKQEKSELEEKLRVLVTEKAGMQLNLEELQKKLEMTELLLQQFSSRCEAPDANQQLQQAMEERAQLEAHLGQVMESVRQLQMERDKYAENLKGESAMWRQRMQQMSEQVHTLREEKECSMSRVQELETSLAELRNQMAEPPPPEPPAGPSEVEQQLQAEAEHLRKELEGLAGQLQAQVQDNEGLSRLNREQEERLLELERAAELWGEQAEARRQILETMQNDRTTISRALSQNRELKEQLAELQSGFVKLTNENMEITSALQSEQHVKRELGKKLGELQEKLSELKETVELKSQEAQSLQQQRDQYLGHLQQYVAAYQQLTSEKEVLHNQLLLQTQLVDQLQQQEAQGKAVAEMARQELQETQERLEAATQQNQQLRAQLSLMAHPGEGDGLDREEEEDEEEEEEEAVAVPQPMPSIPEDLESREAMVAFFNSAVASAEEEQARLRGQLKEQRVRCRRLAHLLASAQKEPEAAAPAPGTGGDSVCGETHRALQGAMEKLQSRFMELMQEKADLKERVEELEHRCIQLSGETDTIGEYIALYQSQRAVLKERHREKEEYISRLAQDKEEMKVKLLELQELVLRLVGDRNEWHGRFLAAAQNPADEPTSGAPAPQELGAANQQGDLCEVSLAGSVEPAQGEAREGSPRDNPTAQQIMQLLREMQNPRERPGLGSNPCIPFFYRADENDEVKITVI
On to B1, for which the “release of Importin-β from Importin-β•GM130 complex by RanQ69L” value in the series with Importin-β is ~ 47%. Besides, in the series on p115-CTD, the “p115-CTD remaining on GM130” value is on record as ~ 38%. Also, the Tm with Importin-α (a.a. 70–498) was ~ 44 °C.
